Assay results published in paper PMC12461627, “Locking CBL TKBD in its native conformation presents a novel therapeutic opportunity in mutant CBL-dependent leukemia” (Molecular Therapy, 2025).

B1: unnamed (parent)
chain 1: MTVEEMDSWIKSWDQM
chain 2: PPGTVDKKMVEKCWKLMDKVVRLCQNPKLALKNSPPYILDLLPDTYQHLRTILSRYEGKMETLGENEYFRVFMENLMKKTKQTISLFKEGKERMYEENSQPRRNLTKLSLIFSHMLAELKGIFPSGLFQGDTFRITKADAAEFWRKAFGEKTIVPWKSFRQALHEVHPISSGLEAMALKSTIDLTCNDYISVFEFDIFTRLFQPWSSLLRNWNSLAVTHPGYMAFLTYDEVKARLQKFIHKPGSYIFRLSCTRLGQWAIGYVTADGNILQTIPHNKPLFQALIDGFREGFYLFPDGRNQNPDLTGLCEP

Variants of: B1
Experiment: phage ELISA
Settings: with partner chain of the complex shown;; read off a plot

| Variant | response [OD at 450 nm] |
| --- | --- |
| chain 2 G260E | 0.1 |
